From the DeepSol protein solubility set

assay: soluble on expression in E. coli; label from the status in PepcDB or PDB records

Sequence | soluble on expression in E. coli
MDDIVPDVLDAVPAGTIKVIYGDDLEVKQGNELTPTQVKDQPIVSWSGLEGKSNLLTLLMVDPDAPTRQDPKYREILHWSVVNIPGSNENPSGGHSLADYVGSGPPKDTGLHRYIFLLYRQENKIEETPTISNTTRTGRLNFNARDFAAKHGLGEPIAANYYQAQYDDYVPIRNKTIVG | soluble
MGSDKIHHHHHHNKSEDKLSGDDFWAQGNETNAEAFLLSIYNSFRNATMSQRPFLTYSGDMRCAPITAYSTGDKYVAYLANNDMGELRNTYPDDARGGLIMQWDVFYTAIQDANILLAEIDKVPGMDELKRSRFKAEAIFMRSLSYFFIVRAFGDVPYYTNAYNEAPLPRTNMVIVLQNCLADLQPLLDDDPGAEVLPWSYSSYSSKGIRASRGSVIALMMHINLWLVQFDAQNKEQYYRNVVSLGEELERNNGAYSLLDINRSSVIFAGGSDEGLFEIAQNINFNEIFMMNAKFSDNVSYSCLNKSMPLFCYSGDYLMTLFPMYEDDARKELWFDEKIYSTSVSSSAPKEIKKFWNIDTYGNGTITSNSGNQIVFRYAGALLLYAEALAALGTNDTKACELLNRVRNRAHASEINTSGSELMDAIFWERCRELIGEGHYYYDLVRTGKVYNRNYCMNPMTRTNFNVGAWTWPIHRNALKNNTQIGLNLFWE | not soluble
MGSDKIHHHHHHMKKLIAGVLVLTILGSCGNKKTNIDPFASITQEVDSIRHKADSIHQEELPEEPKPTEADESFDDFIYNFASDDALQRQRVKFPLPYYKGDEKTNIEERNWKHDDLFTKQHYYTLLFDKEEDMDLVGDTSLTSVQVEWIFVKTRMVKKYYFERIKGAWILEAINLRPVERNENEDFVEFFSHFAADSLFQSRRVQEPLAFVTSDPDDDFSILETSLDLNQWFAFKPALPTDRLSNINYGQRNDDNSPTKILALKGIGNGFSNILYFRRKAGEWQLYKFEDTSI | not soluble
MSDTHGKFIWVELMTPDMEAAARFYGHVVGWQTKDFGSPEMPYLVLEADGKGMGGVMELTEEHKGQGIPPNWTAYVDVDDVDATAKLFADKGGAIRRPPQDIPEIGRFAVVADPYGAVLCIMTPLPMETGGFPEDMQEKKGHVGWYELFTDNVDEAMAFYGEVFGWTKDHDFDMGEMGPYRIFAHKGKAVGGIMKRMPQVPVCHWGYYFNVDGIEDAITRVSTGGGKVVNGPMEVPGESWIVNCVDPQGAYFSLVSQKK | not soluble
GMENELEDKILAILEQHQVGVLTSVQGDFPHARYMTFLHDGLTLYTPSGKELPKTEEVRRNPHVCVLIGYDSPGSAFLEINGLASLEEDESIKERIWENISKDWFQGEDSPSFVVIKIVPEQIRILNS | soluble
MVAQQKNLEGYVGFANLPNQVYRKSVKRGFEFTLMVVGESGLGKSTLINSLFLTDLYSPEYPGPSHRIKKTVQVEQSKVLIKEGGVQLLLTIVDTPGFGDAVDNSNCWQPVIDYIDSKFEDYLNAESRVNRRQMPDNRVQCCLYFIAPSGHGLKPLDIEFMKRLHEKVNIIPLIAKADTLTPEECQQFKKQIMKEIQEHKIKIYEFPETDDEEENKLVKKIKDRLPLAVVGSNTIIEVNGKRVRGRQYPWGVAEVENGEHCDFTILRNMLIRTHMQDLKDVTNNVHYENYRSRKLAAVTYNGVDNNKNKGQLTKSPLAQMEEERREHVAKMKKMEMEMEQVFEMKVKEKVQKLKDSEAELQRRHEQMKKNLEAQHKELEEKRRQFEDEKANWEAQQRILEQQNSSRTLEKNKKKGKIF | soluble
MIPHTDIVHNLAEKVVVVRLEKPVTFHNMIAPGKEVEVSLLFFIINNSSSSQTNILAQLMDFFTGNGHLEDLSKISEPEALYAYIAEATA | not soluble
MKLIGIVGSNADSSYNRLLLQYIGKEFYKMFDLEILEIKDIPMFNQSKDQTNSVLIQNMNRKILQADGVIIATPEHNHTIPAGLKSVLEWLSFKIHPLENKPVMIVGCSYYDQGTSRAQLHLRQILDAPGVNAIVMPGNEFLLGKAKEAFDENGNLIAEGTRQFLESTLQKFVEFIDVISKLEGAKPKDLPEDLHAKGTIETTIEGVDMAADDWVEQAAEAVQAVEGDTYVKLDRGILTVDQLNYFLKSMPMELTYADSNNQFLYYNKKMAAEEMFAKRQPGQVGNPLANCHPPKALKNVEWVIQQLRSGKTDAIRVHVPMHGPDTYVVHNYQAMYDDNGNYAGINEYILDFKPIVDWYLKQTGQELVGGKNVDAVSGASKKEAPETADSVSSASVHEEESATEKPTVDSVSSASIKE | not soluble
MNLIEKTREFAATFHEGEPSSHDMSHINRVEALCMEIQKEEGGDLLILSLAALLHDVGVIKEHEEGGDHALYSSEIAIEFLSRAGVEMKTIEAVAYCIQTHRFSGGKRPETVEARILQDADRLDALGAIGIFRSILSMGALRMLKHTTGLDKGSSKKTVYIEDPVEGFNEYMRYKPFTIPERLNTVTAKRIAGERLKIMHIYLEALNLEAGNGKHKPLEHHHHHH | soluble
MGHHHHHHSHAPNCTRKSTQSDLAFFRFPRDPARCQKWVENCRRADLEDKTPDQLNKHYRLCAKHFETSMICRTSPYRTVLRDNAIPTIFDLTSHLNNP | not soluble
MQPNDITFYQRFEADILAGHKTISIRDDSESHFKAGDILRVGRFEDNQYFCNIEVLSVSPITLDELTQPHAKQENMGLDELKEVIRGIYPNEIIFWVIQFSLKEYFNEEKCVREIIITDRKFN | soluble
MGHHHHHHSHMDADSASQRLVISAPDSQVRFSNIRTNDVAKTPQMHGTEMANSPQPPPLSPHPCDVVDEGVTKTPSTPQSQHFYQMPTPDPLVPSKPMEDRIDSLSQSFPPQYQEAVEPTVYVGTAVNLEEDEANIAWKYYKFPKKKDVEFLPPQLPSDKFKDDPVGPFGQESVTSVTEYVFFLIVTIII | not soluble
MGSSHHHHHHSSGLEVLFQGPLHMRTQGIKPRIREILSKELPEELVKLLPKRWVRIGDVLLLPLRPELEPYKHRIAEVYAEVLGVKTVLRKGHIHGETRKPDYELLYGSDTVTVHVENGIKYKLDVAKIMFSPANVKERVRMAKVAKPDELVVDMFAGIGHLSLPIAVYGKAKVIAIEKDPYTFKFLVENIHLNKVEDRMSAYNMDNRDFPGENIADRILMGYVVRTHEFIPKALSIAKDGAIIHYHNTVPEKLMPREPFETFKRITKEYGYDVEKLNELKIKRYAPGVWHVVLDLRVFKS | soluble
MTKTLETQPEEKTVFLCKETNPDFLGREIYADNVETPYNFYLIRKLYLAKEYQNLAEGEQFFEALCESWDESEQFEELIVKKIYVYVETELMYYTVYFGSFEPTTRDLRSALKQWMYEIPTTKNKKTVRMNETNVQVVPQENQLTELAGEIAVLREMLTLLKENLASLNEAVNQTRNPVISRQIKTIHLKRASPVIAAEQASLKVSEDTNLEQPDVNLSPDNRENQEGETTVATSEPAPIKEALPEKKQENQQSTAAKPLFTFPQETEKSSLNSVNKSAEKEEEQKPEKEAVSMESEKENSSSRTIPADFQRQLDELEEEIYRRFMSRHLEDTDGNQAVPKITIEKRQLEAQMFEAKAFSQSFKQVQKKKAGDVRICNQLSCMKLEKGLDKFLDEVTEYVEKRTLFNKKVRCPLPVIRELEGYGQLNQYMQKILDCY | not soluble
MSLTADKYTVAINENALKILGEIVFLMGASQNFAKYPVSFIINYLLPSIYLNQYRIYRTVKDNKPIGFACWAFINDQVEKELIENDINLSVEERNSGENIYVLYFIAPFGHAKQIVHDLKNNIFPNKIVKGLRLDKDGKKVLRVATYYEGHHHHHH | soluble
MGSDKIHHHHHHMDRIIEKLDHGWWVVSHEQKLWLPKGELPYGERANFDLVGQRALQIGEWQGEPVWLVQQQRRHDMGSVRQVIDLDVGLFQLAGRGVQLAEFYRSHKYCGYCGHEMYPSKTEWAMLCSHCRERYYPQIAPCIIVAIRRDDSILLAQHTRHRNGVHTVLAGFVEVGETLEQAVAREVMEESGIKVKNLRYVTSQPWPFPQSLMTAFMAEYDSGDIVIDPKELLEANWYRYDDLPLLPPPGTVARRLIEDTVAMCRAEYE | not soluble
GSHMIASLSDSVSNAREERMALRQEQEQLQSRIQSLMQRAPVWLAAQNSLNQLSEQCGEEFTSSQDVTEYLQQLLEREREAIVERDEVGARKNAVDEEIERLSQPGGSEDQRLNALAERFGGVLLSEIYDDVSLEDAPYFSALYGPSRHAIVVPDLSQVTEHLEGLTDCPEDLYLIEGDPQSFDDSVFSVDELEKAVVVKIADRQWRYSRFPEVPLFGRAARESRIESLHAEREVLSERFATLSFDVQKTQRLHQAFSRFIGSHLAVAFESDPEAEIRQLNSRRVELERALSNHENDNQQQR | soluble
MAAFNAKYLIDLLKRIRSGEESIDSPDALELLYIPLPLAHELGVINSMDGLDPYDEMEISCKSILKKLDEKKKTEEKHRAKQERQAQKKGAKEQAKKEKAELKKEAKELLKKEKAEERKKESLKRKLSEKSEPAAKKAKASEDQENRGATKKKITPPNRKHTALFKKCMAMRVKNFAY | not soluble
MSEMLNHVASCRLPTEWGVFTMHGFEEANGQEHVALTVGNFSDGNPVLTRIHSECLTGDALFSRKCDCGPQLEAAMRAVQTEGRGIIVYLRQEGRGIGLINKIRAYHLQDQGMDTVEANLALGLPVDARDFRLAQSIYEYLGIRSVKLLTNNPEKIQTLKDAGINVVERIPLHVGENLENKRYLQTKADKLGHLMSE | not soluble
MERVNHLLQRLLGNQRFKQRYEQMKRYILEHPDVQPFLRAHERQLSADAVDRSLMKLYEFIEQHGNCRQCPGLERCNNMLPGYHPNLVVNGGRIDVEYDRCPKKVQHDERKRQESLIQSMFMPREILRASLSDVDLNDDGRIKAIRFAERFVAEYEPGKKMKGLYLHGSFGVGKTYLLAAIANELAKRNVSSLIVYVPELFREIKHSLQDQTMNEKLDYIKKVPVLMLDDLGAEAMSSWVRDDVFGPILQYRMFENLPTFFTSNFDMQQLAHHLTYSQRGEEEKVKAARIMERIRYLAYPIEITGPNRREQNI | not soluble
MSLTAELQALDAAHHLHPFSANNALGEEGTRVITRARGVWLNDSEGEEILDAMAGLWCVNIGYGRDELAEVAARQMRELPYYNTFFKTTHVPAIALAQKLAELAPGDLNHVFFAGGGSEANDTNIRMVRTYWQNKGQPEKTVIISRKNAYHGSTVASSALGGMAGMHAQSGLIPDVHHINQPNWWAEGGDMDPEEFGLARARELEEAILELGENRVAAFIAEPVQGAGGVIVAPDSYWPEIQRICDKYDILLIADEVICGFGRTGNWFGTQTMGIRPHIMTIAKGLSSGYAPIGGSIVCDEVAHVIGKDEFNHGYTYSGHPVAAAVALENLRILEEENILDHVRNVAAPYLKEKWEALTDHPLVGEAKIVGMMASIALTPNKASRAKFASEPGTIGYICRERCFANNLIMRHVGDRMIISPPLVITPAEIDEMFVRIRKSLDEAQAEIEKQGLMKSEGHHHHHH | not soluble
MEFTGDLGLGHVTIRASTSSNIRSEVLMEGEYGFIGKSIPTDNPAGQRIIFCGGEGTSSTTGAQITLYGANNTDSRRIVYNGDEHLFQSADVKPYNDNVTALGGPSNRFTTAYLGSNPIVTANGERKTEPVVFDDAFLDAWGDVHYIMYQWLDAVQLKGNDARIHFGVIAQQIRDVFIAHGLMDENSTNCRYAVLCYDKYPRMTDTVFSHNEIVEHTDEEGNVTTTEEPVYTEVVIHEEGEEWGVRPDGIFFAEAAYQRRKLERIEARLSALEQK | soluble
MNLGTLVSETRNPQTMDLDALPTPELVKRFNEQDTLVAEAVKATLPDVARAVDAAAAALKSGGRIIYMGAGTSGRLGVLDASECPPTFGVPHGLVVGLIAGGPGALLKAVEGAEDSQQAGEDDLVALNLQEQDLVVGLAASGRTPYVIGGLRYARQSGCTTVAVSCNPDSPIAREANIAISPVVGPEALTGSTRLKSGTAQKMVLNMISTGAMVKFGKVYQNLMVDMKATNVKLVDRACRMVVEATGIGREEAEALLKQTDFEVKPAILMALTGLDAAAAREKLAAHQGFLRAALEH | not soluble
